Measured values: the supplement of paper PMC10567573

B1: NEK8 (parent)
chain: VVGTPCYISPELCEGKPYNQKSDI
B2: NCF4 (parent)
chain: FGPDSKSSALACTLPTLPAKVYVG
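Note: lentivirally expressed fusions sorted by FACS into six bins by GFP to DsRed ratio, PSI derived from sequencing read proportions per bin multiplied by bin number.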

Variants of: B1
Assay: protein stability index of a GFP-peptide fusion (GPS, HEK-293T) (PSI 1-6); higher = more stable
Conditions: c terminus: a fixed tail appended
In the case of VVGTPCYISPELCEGKPYNQKSYI [D23Y], the protein stability index is reported as 2.44. In the case of VVGTPCYISPELCEGKPYNQKSPI [D23P], the protein stability index is reported as 2.35. In the case of VVGTPCYISPELCEGKPYNQKSFI [D23F], the protein stability index is reported as 2.04. For VVGTPCYISPELCEGKPYNQKSLI [D23L], the protein stability index was 2.15. VVGTPCYISPELCEGKPYNQKSTI [D23T] showed a protein stability index of 2.63. Variant VVGTPCYISPELCEGKPYNQKSKI [D23K] has a protein stability index of 3.02. VVGTPCYISPELCEGKPYNQKSRI [D23R] showed a protein stability index of 2.29. VVGTPCYISPELCEGKPYNQKSVI [D23V] gave a protein stability index of 2.02. Work on VVGTPCYISPELCEGKPYNQKSQI [D23Q] yielded a protein stability index of 2.36. VVGTPCYISPELCEGKPYNQKSCI [D23C] showed a protein stability index of 2.93. VVGTPCYISPELCEGKPYNQKSII [D23I] showed a protein stability index of 2.19. Work on VVGTPCYISPELCEGKPYNQKSWI [D23W] yielded a protein stability index of 1.25. In the case of VVGTPCYISPELCEGKPYNQKSSI [D23S], the protein stability index is reported as 2.17. With VVGTPCYISPELCEGKPYNQKSAI [D23A] the protein stability index was 2.74. VVGTPCYISPELCEGKPYNQKSEI [D23E] showed a protein stability index of 2.47. VVGTPCYISPELCEGKPYNQKSMI [D23M] showed a protein stability index of 2.18. Variant VVGTPCYISPELCEGKPYNQKSNI [D23N] has a protein stability index of 2.56. VVGTPCYISPELCEGKPYNQKSHI [D23H] gave a protein stability index of 2.94. VVGTPCYISPELCEGKPYNQKSGI [D23G] gave a protein stability index of 1.82. In the case of VVGTPCYISPELCEGKPYNQKDDI [S22D], the protein stability index is reported as 3.05. VVGTPCYISPELCEGKPYNQKRDI [S22R] gave a protein stability index of 3.01. With VVGTPCYISPELCEGKPYNQKKDI [S22K] the protein stability index was 3.12. For VVGTPCYISPELCEGKPYNQKMDI [S22M], the protein stability index was 2.51. VVGTPCYISPELCEGKPYNQKIDI [S22I] showed a protein stability index of 2.5. Variant VVGTPCYISPELCEGKPYNQKPDI [S22P] has a protein stability index of 3.08. VVGTPCYISPELCEGKPYNQKEDI [S22E] gave a protein stability index of 3.31. VVGTPCYISPELCEGKPYNQKCDI [S22C] showed a protein stability index of 2.52. VVGTPCYISPELCEGKPYNQKWDI [S22W] gave a protein stability index of 1.26. In the case of VVGTPCYISPELCEGKPYNQKGDI [S22G], the protein stability index is reported as 2.67. With VVGTPCYISPELCEGKPYNQKFDI [S22F] the protein stability index was 2.5. VVGTPCYISPELCEGKPYNQKVDI [S22V] gave a protein stability index of 2.36. VVGTPCYISPELCEGKPYNQKYDI [S22Y] showed a protein stability index of 2.37. For VVGTPCYISPELCEGKPYNQKQDI [S22Q], the protein stability index was 2.85. With VVGTPCYISPELCEGKPYNQKHDI [S22H] the protein stability index was 2.77. VVGTPCYISPELCEGKPYNQKADI [S22A] showed a protein stability index of 2.48. With VVGTPCYISPELCEGKPYNQKLDI [S22L] the protein stability index was 2.63. For VVGTPCYISPELCEGKPYNQKTDI [S22T], the protein stability index was 2.95. Work on VVGTPCYISPELCEGKPYNQKNDI [S22N] yielded a protein stability index of 2.58. Variant VVGTPCYISPELCEGKPYNQKSDP [I24P] has a protein stability index of 3.18. In the case of VVGTPCYISPELCEGKPYNQKSDC [I24C], the protein stability index is reported as 2.91. Work on VVGTPCYISPELCEGKPYNQKSDD [I24D] yielded a protein stability index of 4.21. With VVGTPCYISPELCEGKPYNQKSDY [I24Y] the protein stability index was 3.08. Variant VVGTPCYISPELCEGKPYNQKSDA [I24A] has a protein stability index of 3.45. VVGTPCYISPELCEGKPYNQKSDR [I24R] showed a protein stability index of 3.51. VVGTPCYISPELCEGKPYNQKSDM [I24M] gave a protein stability index of 2.95. Variant VVGTPCYISPELCEGKPYNQKSDE [I24E] has a protein stability index of 2.94. In the case of VVGTPCYISPELCEGKPYNQKSDV [I24V], the protein stability index is reported as 3.27. Variant VVGTPCYISPELCEGKPYNQKSDH [I24H] has a protein stability index of 3.18. Work on VVGTPCYISPELCEGKPYNQKSDS [I24S] yielded a protein stability index of 3.56. VVGTPCYISPELCEGKPYNQKSDL [I24L] gave a protein stability index of 2.79. Work on VVGTPCYISPELCEGKPYNQKSDN [I24N] yielded a protein stability index of 3.35. VVGTPCYISPELCEGKPYNQKSDT [I24T] showed a protein stability index of 3.97. VVGTPCYISPELCEGKPYNQKSDF [I24F] showed a protein stability index of 2.51. For VVGTPCYISPELCEGKPYNQKSDQ [I24Q], the protein stability index was 3.33. Work on VVGTPCYISPELCEGKPYNQKSDG [I24G] yielded a protein stability index of 3.4. In the case of VVGTPCYISPELCEGKPYNQKSDK [I24K], the protein stability index is reported as 3.63. VVGTPCYISPELCEGKPYNQKSDW [I24W] gave a protein stability index of 2.63. Variant VVGTPCYISPELCEGKPYNRKSDI [Q20R] has a protein stability index of 2.84. VVGTPCYISPELCEGKPYNKKSDI [Q20K] gave a protein stability index of 3.15. Variant VVGTPCYISPELCEGKPYNHKSDI [Q20H] has a protein stability index of 2.59. With VVGTPCYISPELCEGKPYNSKSDI [Q20S] the protein stability index was 2.49. VVGTPCYISPELCEGKPYNWKSDI [Q20W] gave a protein stability index of 1.89. VVGTPCYISPELCEGKPYNIKSDI [Q20I] showed a protein stability index of 2.24. VVGTPCYISPELCEGKPYNVKSDI [Q20V] gave a protein stability index of 2.79. With VVGTPCYISPELCEGKPYNLKSDI [Q20L] the protein stability index was 2.55. For VVGTPCYISPELCEGKPYNPKSDI [Q20P], the protein stability index was 2.31. With VVGTPCYISPELCEGKPYNGKSDI [Q20G] the protein stability index was 2.71. With VVGTPCYISPELCEGKPYNNKSDI [Q20N] the protein stability index was 3.3. Work on VVGTPCYISPELCEGKPYNYKSDI [Q20Y] yielded a protein stability index of 2.14. With VVGTPCYISPELCEGKPYNMKSDI [Q20M] the protein stability index was 2.22. VVGTPCYISPELCEGKPYNTKSDI [Q20T] gave a protein stability index of 2.48. Work on VVGTPCYISPELCEGKPYNQRSDI [K21R] yielded a protein stability index of 2.26. Work on VVGTPCYISPELCEGKPYNQVSDI [K21V] yielded a protein stability index of 1.99. VVGTPCYISPELCEGKPYNQPSDI [K21P] showed a protein stability index of 2.45. VVGTPCYISPELCEGKPYNQCSDI [K21C] gave a protein stability index of 2.51. For VVGTPCYISPELCEGKPYNQFSDI [K21F], the protein stability index was 1.75. With VVGTPCYISPELCEGKPYNQESDI [K21E] the protein stability index was 2.48. Variant VVGTPCYISPELCEGKPYNQMSDI [K21M] has a protein stability index of 2.07. VVGTPCYISPELCEGKPYNQQSDI [K21Q] gave a protein stability index of 2.92. VVGTPCYISPELCEGKPYNQSSDI [K21S] gave a protein stability index of 3.01. VVGTPCYISPELCEGKPYNQGSDI [K21G] gave a protein stability index of 2.79. VVGTPCYISPELCEGKPYNQLSDI [K21L] showed a protein stability index of 2.41. VVGTPCYISPELCEGKPYNQHSDI [K21H] showed a protein stability index of 2.86. VVGTPCYISPELCEGKPYNQWSDI [K21W] showed a protein stability index of 2.65. VVGTPCYISPELCEGKPYNQTSDI [K21T] gave a protein stability index of 2.48. For VVGTPCYISPELCEGKPYNQDSDI [K21D], the protein stability index was 2.93. Variant VVGTPCYISPELCEGKPYNQYSDI [K21Y] has a protein stability index of 2.2. For VVGTPCYISPELCEGKPYNQISDI [K21I], the protein stability index was 1.97. VVGTPCYISPELCEGKPYNQASDI [K21A] showed a protein stability index of 2.99. Variant VVGTPCYISPELCEGKPYNQNSDI [K21N] has a protein stability index of 2.85.

Variants of: B2
Assay: as above
Conditions: c terminus: a fixed tail appended
For FGPFSKSSALACTLPTLPAKVYVG [D4F], the protein stability index was 1.58. FGPRSKSSALACTLPTLPAKVYVG [D4R] showed a protein stability index of 2.1. In the case of FGPYSKSSALACTLPTLPAKVYVG [D4Y], the protein stability index is reported as 1.8. Variant FGPKSKSSALACTLPTLPAKVYVG [D4K] has a protein stability index of 2.48.
